Data from patent US20040137000A1 (UNITED BIOMEDICAL, published 2004).
Read-outs that look alike come from different tables or passages of the source.

What was measured:
[1] = molecular target: T1, CD4 on the surface of host T cells (HIV receptor complex involving CD4) (UniProt P01730 26-458, limits assumed); assay: cell-based or functional assay
[2] = molecular target: T2, recombinant soluble CD4 (rsCD4) (UniProt P01730 26-396, limits assumed); assay: ELISA on rsCD4
T2 construct: Bought reagent coated on ELISA plates at 0.25 µg/ml; also called solid-phase rsCD4

[3] = molecular target: T1, CD4 on the surface of host T cells (HIV …); assay: cell-based or functional assay; remark: listed apart in the source

Binder	Antibody Conc (µg/ml) at 50% Inhibition; MT-2 microplaque neutralization, HIV-1 TH036 (PBL), clade E [1]	Antibody Conc (µg/ml) at 50% Inhibition; MT-2 microplaque neutralization, HIV-1 UG029 (PBL), clade A [1]	Antibody Conc (µg/ml) at 50% Inhibition; MT-2 microplaque neutralization, HIV-1 VL135 (PBL), clade B [1]	fold reduction in binding compared to the chimeric antibody [2]	Antibody Conc (µg/ml) at 50% Inhibition; MT-2 microplaque neutralization, HIV-1 MN (H9 cells), clade B [3]	Antibody Conc (µg/ml) at 50% Inhibition; MT-2 microplaque neutralization, HIV-1 TH036 (PBL), clade E [3]	Antibody Conc (µg/ml) at 50% Inhibition; MT-2 microplaque neutralization, HIV-1 UG029 (PBL), clade A [3]	Antibody Conc (µg/ml) at 50% Inhibition; MT-2 microplaque neutralization, HIV-1 UG046 (PBL), clade D [3]	Antibody Conc (µg/ml) at 50% Inhibition; MT-2 microplaque neutralization, HIV-1 UG266 (PBL), clade D [3]	Antibody Conc (µg/ml) at 50% Inhibition; MT-2 microplaque neutralization, HIV-1 VL135 (PBL), clade B [3]	Antibody Conc (µg/ml) at 50% Inhibition; MT-2 microplaque neutralization, HIV-1 ZIM748 (PBL), clade C [3]
deimmunized B4 antibody DIVHv.3/VKv.2 produced by NS0 cells (antibody, human IgG1, V domains shown, Human IgG1 and human kappa constant regions; NS0 cells; also called DIVHv.3/V v.2; DIVH3/VK2) VH: QVQLVQSGAEVKKPGASVKVSCKASGYTFTDYVIHWVKQATGQGLEWIGEIYPGSGSAYSNAKFKDRVTITADKSTNTAYMELRSLRSDDTAVYFCARRGNGTGFAYWGQGTLVTVSS VL: DIVLTQSPASLAVSPGQRATITCKAGQSVDYDGDSYMNWYQQKPGQPPKLLIYVASNLESGIPSRFSGSGSGTDFTLTINPVEENDTATYYCQQSYKDPLTFGQGTKVEIK	0.7 µg/mL	0.92 µg/mL	0.35 µg/mL	< 3 fold	–	–	–	–	–	–	–
murine monoclonal antibody B4 (antibody, V domains shown) VH: QVQLQQSGPELVKPGASVRMSCKASGYTFTDYVIHWVKQRTGQGLEWIGEIYPGSGSAYSNAKFKDKATLTADKSSNTAYMQLSSLTSEDSAVYFCARRGNGTGFAYWGQGTLVTVSA VL: DIVLTQSPASLAVSLGQRATISCKAGQSVDYDGDSYMNWYQQKPGQPPKLLIYVASNLESGIPARFSGSGSGTDFTLNIHPVEEEDAATYYCQQSYKDPLTFGAGTKLELK	0.24 µg/mL	0.28 µg/mL	0.17 µg/mL	–	14 µg/mL	0.25 µg/mL	0.44 µg/mL	0.4 µg/mL	0.4 µg/mL	0.16 µg/mL	0.21 µg/mL
deimmunized B4 antibody DIVHv.2/VKv.1 produced by NS0 cells (antibody, human IgG1, V domains shown, Human IgG1 and human kappa constant regions; NS0 cells; also called DIVHv.2/V v.1; DIVH2/VK1) VH: QVQLVQSGAEVKKPGASVKVSCKASGYTFTDYVIHWVRQATGQGLEWIGEIYPGSGSAYSNAKFKDRVTITADKSTNTAYMELRSLRSDDTAVYFCARRGNGTGFAYWGQGTLVTVSS VL: DIVLTQSPASLAVSLGQRATITCKAGQSVDYDGDSYMNWYQQKPGQPPKLLIYVASNLESGIPARFSGSGSGTDFTLNIHPVEENDAATYYCQQSYKDPLTFGQGTKLEIK	–	–	–	< 3 fold	> 100 µg/mL	0.5 µg/mL	0.79 µg/mL	0.98 µg/mL	1.2 µg/mL	0.53 µg/mL	0.63 µg/mL
deimmunized B4 antibody DIVHv.2/VKv.3 produced by NS0 cells (antibody, human IgG1, V domains shown, Human IgG1 and human kappa constant regions; NS0 cells; also called DIVHv.2/V v.3; DIVH2/VK3) VH: QVQLVQSGAEVKKPGASVKVSCKASGYTFTDYVIHWVRQATGQGLEWIGEIYPGSGSAYSNAKFKDRVTITADKSTNTAYMELRSLRSDDTAVYFCARRGNGTGFAYWGQGTLVTVSS VL: DIVLTQSPASLAVSPGQRATITCKAGQSVDYDGDSYMNWYQQKPGQPPKLLIYVASNLESGIPSRFSGSGSGTDFTLTINPVEENDTATYYCQQSYKDPLAFGPGTKVEIK	0.62 µg/mL	1.2 µg/mL	0.67 µg/mL	5 fold	–	–	–	–	–	–	–
deimmunized B4 antibody DIVHv.4/VKv.1 produced by NS0 cells (antibody, human IgG1, V domains shown, Human IgG1 and human kappa constant regions; NS0 cells; also called DIVHv.4/V v.1) VH: QVQLVQSGAEVKKPGASVKVSCKASGYTFTDYVIHWVRQATGQGLEWIGEIYPGSGSAYSNSKFKDRVTITADKSTNTAYMELRSLRSDDTAVYFCARRGNGTGFAYWGQGTLVTVSS VL: DIVLTQSPASLAVSLGQRATITCKAGQSVDYDGDSYMNWYQQKPGQPPKLLIYVASNLESGIPARFSGSGSGTDFTLNIHPVEENDAATYYCQQSYKDPLTFGQGTKLEIK	–	–	–	< 3 fold	> 100 µg/mL	0.35 µg/mL	0.35 µg/mL	1.1 µg/mL	7 µg/mL	0.26 µg/mL	0.28 µg/mL
deimmunized B4 antibody DIVHv.1/VKv.2 produced by NS0 cells (antibody, human IgG1, V domains shown) VH: QVQLVQSGPELKKPGASVKVSCKASGYTFTDYVIHWVKQATGQGLEWIGEIYPGSGSAYSNAKFKDRVTMTADKSSNTAYMELSSLTSDDTAVYFCARRGNGTGFAYWGQGTLVTVSS VL: DIVLTQSPASLAVSPGQRATITCKAGQSVDYDGDSYMNWYQQKPGQPPKLLIYVASNLESGIPSRFSGSGSGTDFTLTINPVEENDTATYYCQQSYKDPLTFGQGTKVEIK	0.51 µg/mL	0.73 µg/mL	0.24 µg/mL	–	–	–	–	–	–	–	–
deimmunized B4 antibody DIVHv.2/VKv.2 produced by NS0 cells (antibody, human IgG1, V domains shown, Human IgG1 and human kappa constant regions; NS0 cells; also called DIVHv.2/V v.2; DIVH2/VK2) VH: QVQLVQSGAEVKKPGASVKVSCKASGYTFTDYVIHWVRQATGQGLEWIGEIYPGSGSAYSNAKFKDRVTITADKSTNTAYMELRSLRSDDTAVYFCARRGNGTGFAYWGQGTLVTVSS VL: DIVLTQSPASLAVSPGQRATITCKAGQSVDYDGDSYMNWYQQKPGQPPKLLIYVASNLESGIPSRFSGSGSGTDFTLTINPVEENDTATYYCQQSYKDPLTFGQGTKVEIK	0.63 µg/mL	0.73 µg/mL	0.23 µg/mL	< 3 fold	–	–	–	–	–	–	–
deimmunized B4 antibody DIVHv.4/VKv.2 produced by NS0 cells (antibody, human IgG1, V domains shown, Human IgG1 and human kappa constant regions; NS0 cells; also called DIVHv.4/V v.2) VH: QVQLVQSGAEVKKPGASVKVSCKASGYTFTDYVIHWVRQATGQGLEWIGEIYPGSGSAYSNSKFKDRVTITADKSTNTAYMELRSLRSDDTAVYFCARRGNGTGFAYWGQGTLVTVSS VL: DIVLTQSPASLAVSPGQRATITCKAGQSVDYDGDSYMNWYQQKPGQPPKLLIYVASNLESGIPSRFSGSGSGTDFTLTINPVEENDTATYYCQQSYKDPLTFGQGTKVEIK	0.32 µg/mL	0.48 µg/mL	0.3 µg/mL	< 3 fold	–	–	–	–	–	–	–
deimmunized B4 antibody DIVHv.1/VKv.1 produced by NS0 cells (antibody, human IgG1, V domains shown) VH: QVQLVQSGPELKKPGASVKVSCKASGYTFTDYVIHWVKQATGQGLEWIGEIYPGSGSAYSNAKFKDRVTMTADKSSNTAYMELSSLTSDDTAVYFCARRGNGTGFAYWGQGTLVTVSS VL: DIVLTQSPASLAVSLGQRATITCKAGQSVDYDGDSYMNWYQQKPGQPPKLLIYVASNLESGIPARFSGSGSGTDFTLNIHPVEENDAATYYCQQSYKDPLTFGQGTKLEIK	–	–	–	–	> 100 µg/mL	0.31 µg/mL	0.47 µg/mL	2.1 µg/mL	0.82 µg/mL	0.21 µg/mL	0.45 µg/mL
deimmunized B4 antibody DIVHv.3/VKv.3 produced by NS0 cells (antibody, human IgG1, V domains shown, Human IgG1 and human kappa constant regions; NS0 cells; also called DIVHv.3/V v.3; DIVH3/VK3) VH: QVQLVQSGAEVKKPGASVKVSCKASGYTFTDYVIHWVKQATGQGLEWIGEIYPGSGSAYSNAKFKDRVTITADKSTNTAYMELRSLRSDDTAVYFCARRGNGTGFAYWGQGTLVTVSS VL: DIVLTQSPASLAVSPGQRATITCKAGQSVDYDGDSYMNWYQQKPGQPPKLLIYVASNLESGIPSRFSGSGSGTDFTLTINPVEENDTATYYCQQSYKDPLAFGPGTKVEIK	0.44 µg/mL	1.1 µg/mL	0.62 µg/mL	5 fold	–	–	–	–	–	–	–
deimmunized B4 antibody DIVHv.1/VKv.3 produced by NS0 cells (antibody, human IgG1, V domains shown) VH: QVQLVQSGPELKKPGASVKVSCKASGYTFTDYVIHWVKQATGQGLEWIGEIYPGSGSAYSNAKFKDRVTMTADKSSNTAYMELSSLTSDDTAVYFCARRGNGTGFAYWGQGTLVTVSS VL: DIVLTQSPASLAVSPGQRATITCKAGQSVDYDGDSYMNWYQQKPGQPPKLLIYVASNLESGIPSRFSGSGSGTDFTLTINPVEENDTATYYCQQSYKDPLAFGPGTKVEIK	0.77 µg/mL	1 µg/mL	0.39 µg/mL	–	–	–	–	–	–	–	–
deimmunized B4 antibody DIVHv.3/VKv.1 produced by NS0 cells (antibody, human IgG1, V domains shown, Human IgG1 and human kappa constant regions; NS0 cells; also called DIVHv.3/V v.1; DIVH3/VK1) VH: QVQLVQSGAEVKKPGASVKVSCKASGYTFTDYVIHWVKQATGQGLEWIGEIYPGSGSAYSNAKFKDRVTITADKSTNTAYMELRSLRSDDTAVYFCARRGNGTGFAYWGQGTLVTVSS VL: DIVLTQSPASLAVSLGQRATITCKAGQSVDYDGDSYMNWYQQKPGQPPKLLIYVASNLESGIPARFSGSGSGTDFTLNIHPVEENDAATYYCQQSYKDPLTFGQGTKLEIK	–	–	–	< 3 fold	> 100 µg/mL	0.58 µg/mL	0.63 µg/mL	0.99 µg/mL	2.2 µg/mL	0.26 µg/mL	0.42 µg/mL
